The results in this text go back to publication PMC6921046, “Functional Characterization and Structural Analysis of NADH Oxidase Mutants from Thermus thermophilus HB27: Role of Residues 166, 174, and 194 in the Catalytic Properties and Thermostability” (Microorganisms, 2019).

Numbering of substitutions follows the chain as printed. Names may count otherwise.

Holding throughout (experiment): purified protein
Substrate in data set [1]: Cc1cc2nc3c(=O)[nH]c(=O)nc-3n(C[C@H](O)[C@H](O)[C@H](O)CO)c2cc1C
The settings on record: 10 µM NADH, pH 7, 25 °C, exogenous flavin, varied: cofactor.

Substrate in data set [2]: Cc1cc2nc3c(=O)[nH]c(=O)nc-3n(C[C@H](O)[C@H](O)[C@H](O)COP(=O)(O)O)c2cc1C
It counts as biochemical, Thermus thermophilus. The settings on record: 10 µM NADH, pH 7, 25 °C, exogenous flavin, varied: cofactor.

Substrate in data set [3]: Cc1cc2nc3c(=O)[nH]c(=O)nc-3n(C[C@H](O)[C@H](O)[C@H](O)COP(=O)(O)OP(=O)(O)OC[C@H]3O[C@@H](n4cnc5c(N)ncnc54)[C@H](O)[C@@H]3O)c2cc1C
It counts as biochemical, Thermus thermophilus. The settings on record: 10 µM NADH, pH 7, 25 °C, exogenous flavin, varied: cofactor.

Substrate in data set [4]: NC(=O)C1=CN([C@@H]2O[C@H](COP(=O)(O)OP(=O)(O)OC[C@H]3O[C@@H](n4cnc5c(N)ncnc54)[C@H](O)[C@@H]3O)[C@@H](O)[C@H]2O)C=CC1
It counts as biochemical, Thermus thermophilus. The settings on record: 50 µM FAD, pH 7, 25 °C.

[5] abbreviates: authors' cloned wild type, apparent.
[6] abbreviates: authors' cloned wild type K166/H174/Y194, apparent.

B1: Tt27-NOX (Thermus thermophilus HB27; H194Y) (protein)
chain: MEATLPVLDAKTAALKRRSIRRYRKDPVPEGLLREILEAALRAPSAWNLQPWRIVVVRDPATKRALREAAFGQAHVEEAPVVLVLYADLEDALAHLDEVIHPGVQGERREAQKQAIQRAFAAMGQEARKAWASGQSYILLGYLLLLLEAYGLGSVPMLGFDPERVKAILGLPSHAAIPALVALGYPAEEGYPSYRLPLERVVLWR
notes: Recombinant, pET22b, E. coli BL21(DE3), heat shock plus PEI-Ag/DS-Ag; homodimer, ~27 kDa monomer
Consider B1, for which the Km in the data set “purified protein [1]” (K166/H174/H194, apparent) worked out at 68.7 ± 3.4 µM; in “purified protein [1]” (setting [5]) it was 69.7 ± 3.5 µM; in “purified protein [2]” (K166/H174/H194, apparent), 45 ± 2.3 µM; in “purified protein [2]” (setting [5]) it was 43 ± 2.2 µM; in “purified protein [3]” (K166/H174/H194, apparent), 46 ± 2.3 µM; in the data set “purified protein [3]” (setting [5]) it was 34 ± 1.7 µM. In addition, the Km in the data set “purified protein [4]” (K166/H174/H194, apparent) was 1.3 ± 0.06 µM; in “purified protein [4]” (setting [6]), 1.6 ± 0.1 µM. The catalytic constant (kcat) in the data set “purified protein [4]” (K166/H174/H194, apparent) was 27.2 ± 1.4 s⁻¹; in “purified protein [4]” (setting [6]) it was 23.3 ± 1.2 s⁻¹. Further, the specificity constant (kcat/Km) in “purified protein [4]” (K166/H174/H194, apparent) stood at 2.1e+07 ± 1.1e+06 M⁻¹ s⁻¹; in “purified protein [4]” (setting [6]), 1.46e+07 ± 70000 M⁻¹ s⁻¹.

B2: Tt27-NOX (Thermus thermophilus HB27; H174R/H194Y) (protein)
chain: B1 chain with H174R
notes: as for B1
As for B2, the Km in the data set “purified protein [1]” (K166/R174/Y194, apparent) is on record as 60 ± 3 µM; in “purified protein [2]” (K166/R174/Y194, apparent), 15 ± 0.8 µM; in the data set “purified protein [3]” (K166/R174/Y194, apparent) it was 127 ± 6.4 µM; in “purified protein [4]” (K166/R174/Y194, apparent) it was 1.9 ± 0.1 µM. The kcat in “purified protein [4]” (K166/R174/Y194, apparent) worked out at 8.6 ± 0.4 s⁻¹. Moreover, the specificity constant (kcat/Km) in “purified protein [4]” (K166/R174/Y194, apparent) is 4.5e+06 ± 220000 M⁻¹ s⁻¹.

B3: R166/R174/H194 variant (Tt8-NOX variant) (Thermus thermophilus HB8; H174R) (protein)
chain: B1 chain with K166R, H174R, Y194H
notes: pET22b, E. coli BL21(DE3); homodimer, ~27 kDa monomer
As for B3, the Km is 50.8 ± 2.6 µM in the data set “purified protein [1]” (R166/R174/H194, apparent); 23.6 ± 1 µM in “purified protein [2]” (R166/R174/H194, apparent); 31.9 ± 1.4 µM in “purified protein [3]” (R166/R174/H194, apparent); 1.8 ± 0.1 µM in “purified protein [4]” (R166/R174/H194, apparent). Besides, in the data set “purified protein [4]” (R166/R174/H194, apparent), the kcat amounted to 15.1 ± 0.8 s⁻¹. Moreover, the kcat/Km in the data set “purified protein [4]” (R166/R174/H194, apparent) is 8.4e+06 ± 420000 M⁻¹ s⁻¹.

B4: Tt27-NOX (Thermus thermophilus HB27; H194Y/K166R) (protein)
chain: B1 chain with K166R
notes: as for B1
Regarding B4, the Michaelis constant (Km) amounted to 27 ± 1.4 µM in the data set “purified protein [2]” (R166/H174/Y194, apparent) and 30 ± 1.5 µM in “purified protein [3]” (R166/H174/Y194, apparent).

By Km is commonly meant the substrate concentration at which the rate is half of its maximum. The kcat is the maximal rate divided by the concentration of active sites. Usually kcat/Km stands for the second-order rate constant that governs catalysis at low substrate concentration.
